The domain aggregation screens of Martell et al. (2025)

assay: soluble fraction after stress (log2 fold change); higher = more stays soluble; pooled small domains, quantitative proteomics; details: stress: pH 4
Method in brief: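 Pooled custom libraries of small protein domains were stressed at pH 4 and then measured by high-throughput quantitative proteomics. The fold change in the amount of each domain that stays soluble after the acid stress serves as a measure of aggregation propensity. Fold changes are given on a log2 scale, and higher values mean more of the domain stayed soluble.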

Row | Sequence | soluble fraction (log2)
1 | HMIDQNEDLLSGYIDEVLSQNPDKVNEYLKGKSGLIGFFMGQIKQKSATALDAALLKSQLETALEKLRIK | -0.00948
2 | HMNVEQQNQARENIKRLMEEQGLSQPKLSEKAGIAFGTLSRILRGKQDLTIQTAEKIADALGLSVYDLAE | 0.247
3 | HMQNFLSITSKEKIDIGNFQLISFKFENNLYDYVISGNKSELLIFQEKTIENNNENIEKITSNF | -0.847
4 | HMQNLETVEEIKELALNYLDKYQPSKKSLQVYLFRKAIDAQSNSVEKSEILKKIETVLTDLEEQGILNDAL | -0.139
5 | HMEELLVAVKADGSIWADGRPITPDGLASFIDSKPADAVLNLAVDKKAPFAAFVKVVDVAKEKKSGRFVIR | -0.141
6 | HMELDLPLEELGLSTRVLHSLKEEGIESVRALLALNLKDLKNIPGIGERSLEEIKEALEKKGFTLK | -0.423
7 | HMSSSKVAISQFEELVDQGQVREVVIEGSTATGTTAAGRRFAAEIPPGGMELFLSKLDDAGTTYEYSPP | 0.127
8 | HMQKLLGPFEDFVKIKLDKYPDTKAAQMHDWLKEHYPDFPEVTPKTVYNFVMYVRQRHNIPIPD | -0.276
9 | HMAQVSDTGAIAKIVADAIAANPKQVQQYLDGNEKVLMYLVGQVMKLSKGKANPPMVIQLLKEQLG | -0.0882
10 | HMQKIYTIARGDTLSHIVAGTLKQQGIAYTTGELYRLVNVVAQYNDILNPNRIYTGHQLDLTPLYSED | -0.434
11 | HMSLETRRYQLPRTDAQTASGLLRSLSGLPGVREVNLSGEGVAYLKVDSKGFDEQNVIKLLAGE | -0.0727
12 | HMEDDRLIQNLLLTAKNLVMDVGRMDESALAENEDTVRTAMLFALGYLYENRSNPDYHKLTLNLRSILFA | -0.807
13 | HMKFGEQIKERRQELDLTQAEVAEKLFVTRQAVSNWEHNKTYPDLNMLVKISNVYQISLDSLLR | -0.0339
14 | HMGMVDKSMYSRYDVGDLVKVLRGPLEGSEGHITEINTDTGTVKVETVFFGRSTVVEVDFSEIDK | -1.35
15 | HMGVTGYPNPTREHITWDDARRIEVWNAYGVPVADLRFARGVLDVAGWPVGTYVARIDGGRSVRFVVI | -0.663
16 | HMATTAGIEKYLGSGLIKGIGPIYAKKIVRKFKEDTIRIIDEEPDRLLEVEGIGQKRLEIIKQAWQQQKE | -0.826
17 | HMGAVQFAEQKIHIGSRWIGKKISEFSAESDAFVILIKRGSEVVIPRGPTDIVENDVLVIHVPD | -1.8
18 | HMDAPQRVTYLLPHSRGEVVSWLHRQGEVVAQEYEAEGVRVVVDLRYAQIRQAAKQFDVLPAEG | -0.656
19 | HMYSQIGYGSSGSDVRKLQEILNGKGYNLSVDGQFGAKTKSAVRDYQSKNGLSVDGIVGVNTWGKLT | 0.22
20 | HMNQEQQSAVMSALKATLPDLEAALEARQFKESKQLLKTAQNQFQQLDGRNRRGFQARIQLLAGQFRELS | -0.00484
21 | HMDSPRITMDQLRIGLYVYLDLTWFQHPFAFSHFKINSEDQIKTILGLGLKSVRYDPALSDPV | -0.645
22 | HMGELGPGSRGQAVRALQERLMALGFPLARFGADGIFGRETTGALRAFQHVAGLSPTGLGDHETLKWLGII | -0.351
23 | HMEAEQLEAIRSALQQLSDMNRTVFNLHVVDGYKHEEIAAMLNITTGTSKAHLHRAKKRLRELID | -0.745
24 | HMQGWREWDYSADLYINARVGGKIEPTENSPISRVYELDEPVSVVAFTSTRYFKLSSGDYIFAEYLSAQKV | -0.18
25 | HMVVLNQEQIKFIDHYLQVSKVRYVDVRSELTDHIATAVELKMQDEALDFYEAFKAFIAVNKSQLLQRN | -0.975

Row | Sequence | soluble fraction (log2)
26 | HMTFAPTAIPSLTRPMEELMSWSFTPNEAFILSRINGLWDVRSIAKISPFPEGEVLRVFEKLHDGGLIRW | -1.54
27 | HMQKADFDYGDYVDLGLAMGRQSRQLREAVGIKLGIGYANSKRFYQRLQTFGISLAELKQAVEEAENDQQN | 0.149
28 | HMKEYRKEGHLYFVTEDRNNEIYLWDFTDKPKHEFKEIITSVELQKVAKEGAMLQYKNGKYELYS | -0.0848
29 | HMPAASDALAGELAQIARLDIAKLLAGDLSEADWSRITSATVQLSERHPDASDELTALVERIDTAYSARAT | -1.32
30 | HMYRSGGYTGAGKDDEEAGVVHRNEFVNTADAVRNPHVKRFLDVFNVAQKDGTIRMLNTSQILERARLDA | 0.0596
31 | HMNMVSGHLQVKKGYYYAVLSFYDSKNKRHVKYISTGLPEKGNKRKAEAELVKIRNAFEPPAE | -0.0995
32 | HMNARSTSYSDFIARVDKDEVASVRLDGETVTYQAADGTTYTTVKPESDPIAERLIAKGIEVNVVRQ | -0.519
33 | HMKKAENEKLNIPYDVTEFLASSIKDDIRMMEGAMVKLLALSSLTKQDITQSLAKRVIQDVLGSSA | -0.451
34 | HMAPMYGEFENVRLTDAQLDKLNARFPPEQVQREIEALSGYMRSKGKRYADHYATLLNWLRRDFPP | -0.112
35 | HMVEYIENINLSEKQKFIAHEILKEIRGRAIFLRDVGLDYLNLSRKAGTLSGGEAQRIRLATQIGSA | -0.347
36 | HMQAATGVVTASVLNIRQGPGTNYTKVGSLLKGAQVEIVGQNGAWSKIRLKSGITGWVNSSYLKTST | -0.085
37 | HMTVLVPNLTGKTLLEAEILLDQAGLKKGDVYSESNKNVPKDHIIRQKPAPNTKIQKGATIDIYRSLGPE | -0.0793
38 | HMDNIKRGEMFYISRGGASYSGSEQHSDRPAVVVSNDKNNENSNVVEVVYMTTQPKTDLPTHVTVR | -0.0773
39 | HMVVEGMQFDRGYLSQYMVTDNEKMVADLENPYILITDKKISNIQEILPLLESILQSSRPLLIIADD | -0.573
40 | HMQAGPEDIIRAKLKTAMPEAQIISIRPTPAGLYQVNAKGYESVFVTADGRYLFQGDLLEIQGDRIVNL | -0.714
41 | HMMNNKEIGTRIAVLRKGMGDSQAKLAERLDVSPQAVSKWETGQSLPDIGNLLKLSWLFRTSINHILEGS | -0.384
42 | HMNADAPWSPFSPGFTGPMNRPVIGLVTKADLANPQRISLVESWLVQAGAQKVFVTSALENTGVDEMFIFL | -0.288
43 | HMRTGLSGMIGEIGIVKQAIDPEGKVAVHGELWKARADVALAAGQTVRVVAVDGLTMTVEATDSK | 0.0837
44 | HMYTLGEESDGTVRLLELYDIIKNKNEKIFVVDELDRSLHPNLTFNFVKKYLSIENKSQLIVSTH | -1.11
45 | HMKNQIGFKIKNARRKASISQADLSAKLGISSSYLNLIESGKRNVNVDLLLKVSDVLNIELKDLSK | -0.437
46 | HMTRRVIRAPAAGIMRSNVKLGDLVKEGDVIAWIGEHEIKAPLTGMVRGLLNDGLAVVGGFKIGDI | 0.157
47 | HMKSLPQKLLAYLESQGLTRDEAGEFVKQGLKITSNDVDQIQLLLANTEVIDIKLQEFIAQK | -0.549
48 | HMRVKLVKKSILASGGENIRVDKFLSNHILTMTRTQIKKLFLDGLVQVNKSFVKPGSILKGNEIITFSIPE | -0.412
49 | HMDFFVLVGAYKTPDEAETIRAKIAFSGLDSSVSHGNDGRYRVRIGPFHSEGDARKAQSTLRANDIPGQII | 0.18
50 | HMGHEISLNNSRFLKLLNKTKISISNDDTRHYLNGIFLHLTEAHGRQFLTGVATDSHRLSSSSLEID | -0.226

Row | Sequence | soluble fraction (log2)
51 | HMLERPLKLKSHYVSAINEKVAVQFQAGEERKSIMGTLTEVNQDTIVIDDRGSVTEIPFKSIIRAKTVF | -0.163
52 | HMRAVFEQLRIGQTLAGVVKAQEKGFSLVEIDGQTVAMRLPHPAAVGDTLRLRFAGHMPQAVFLLES | -0.178
53 | HMASLSRRELEVLELLALRLTVKEVAERLVISELTAKRHTSNIYQKLGVNRRRDALAAAQARGLLGAR | -1.09
54 | HMEGIAEILPASVRQKYGLIGLYDALRGLHFPGNMEEIKAARQRLAFEDTLMFSLTLSMMQYS | -0.0837
55 | HMQQYLDAYDKALAFGIAMNKLPSYENLTLDDKEDVDKLKEIYDGMSNYEKTFVAKDFTDKLDRYVKRIE | 0.144
56 | HMRTDQYHYLAWKQVADELGIPFDEQVNERLRGVSRMASFDIILERYDGTMSDEEKIHWTDKKNEIYKSM | -1.68
57 | HMSSDEAEYKLLLGQEGVAKSPLRPSGVVDFSGRRLDVQTLGDFIESGETVVVKQVNGHRVLVERK | 0.0409
58 | HMTSLAEQAYRHIRDKLSNGAFVPGEQLVNRVLATEIGVSVIPVREAINRLATEGLVKHVPGSGAFVRQ | 0.197
59 | HMLDQGTQSRYQIMDGVRALITGDWSSHGAGLVRELSQEVARTSGLTATSERTFFVPFSALS | -0.111
60 | HMQSNIHELQKKLNEALQALSEDHRAVVTMFDIQGMPHAEISKILGVSEGTVRSRLYYAHQQLQGHL | -0.663
61 | HMVSQELIMLGNRIREYRKERGFSQEILAEKSGVSTNTISRIEGGQMAMSVGILQRIVKALGVDANVMLG | 0.12
62 | HMEDVLVTQIIQLKHVDANDMKTLFTPLLSRGSSQLLAYPQSNVLIITDTRSNIKKITEILDIIDKS | -0.838
63 | HMRTIPDALIGRPYESVETAIVLEGLQAKRTEVFHPTIRPGTVIRLEPTSGSELLRDGVVEIFVSQGPETT | -1.47
64 | HMDPIATLTPREREVLSLMAEGRSNGAIAAALVVGDGAVEKHVSNIFQKLELTPAEGDHRRVLAVLRWLE | -0.864
65 | HMGKTRSTDRTRRAILDAASDLMGKHGTSVSLARIAEAAGMSKGGLLHHFPSRNDLIRALGED | 0.396
66 | HMRQSDIAAAFRESILRSSKGFQYLHTRDFVTALRRRGIHLSEVEANSWIAREKTYFVDSALDHSENRLWI | -0.634
67 | HMVGLKWYDTGNKKPPIGTEYKNTELSEALKGHDRKEFTWKELDVLGVNITDKEQYIVVGENYYTQV | 0.22
68 | HMNTGFPIILETSDAANLTVGAPIMYRGVEVGKIRNMELNSLGDRVLIHILIGHKYQHLVRQNSEFWFSS | -2.1
69 | HMSVKTIRKTEFAKRLYSLMLEKNWNQSDLARASGMGRDSVSQYIRANNTPSPQNLKKLAEALGVEPVELY | 0.0509
70 | HMSLPQSKDAVITILRTLPQLDTRAPEVYKLLGPHALDIILEDPEQVAKKINHVGVATAKLWQQALLGFK | 0.198
71 | HMASSVKAPLPGVILDIKVKVGDTIKNGDTVVILEAMKMENNIHSDKDGVVKSIEVNKGDSVLEGATLLTI | -0.822
72 | HMIVSVPNVRGMGESKAAAALQNRGLLVSIDYESSTSASQGEVIRQSISPGTEVTKGSSITIIIAVSPN | -0.0228
73 | HMEKINLLVENNDNYRLDKIIALNMEELSRTQIQEMIGQGLVLVNGKVEKASYKTKLNDQIEITIED | -0.409
74 | HMTDLALHIGKTLRELRQRRGWSLDKTAQATGVSKAMLGQIERGESSPTVVTLWRISSGLQASFSEFLPP | 0.0792
75 | HMDPGPVLISAQVLDDLEAIRRDGSSNMLDWPAVARLAEVMGMDRTAAWVRTHHREYSAGIFRGFASD | -0.744
